Measured values: US20130344567, “METHOD FOR IMMOBILISING NUCLEIC LIGANDS” (LFB Biotechnologies, published 2013)

Legend:
Conditions in all cases: tags: recombinant human FVII produced in transgenic rabbit milk (FVII-TG)
[1] = molecular target: T1, Factor VII (FVII/FVIIa, active Gla domain) (Homo sapiens, UniProt P08709;P08709 P08709:61-212,P08709:213-466); test: affinity chromatography; 95% of FVII retained and eluted with EDTA (coupling pH 4.2); loading capacity 5.4 mg FVII/ml gel at 5.8 mg/ml aptamer; 50 mM Tris, 10 mM CaCl2, pH 7.5
Experimental: (§1) The loading capacity (or in other words the retention capacity) of the affinity supports, expressed in mg of FVII per ml of gel, was evaluated by injection of a composition of recombinant human FVII in “Tp5” buffer (50 mM Tris, 10 mM CaCl₂, pH 7.5).
(§2) Table 3 below gives the loading capacity of the affinity supports as a function of the number of aptamers grafted at their surface.

[2] = molecular target: T1, Factor VII (FVII/FVIIa, active Gla …); test: affinity chromatography; loading capacity 8.0 mg FVII/ml gel at 5.6 mg/ml aptamer; FVIIam yield in eluate 76.8%; Tris, 10 mM CaCl2, EDTA elution
Experimental: as §1, §2

[3] = molecular target: T1, Factor VII (FVII/FVIIa, active Gla …); test: affinity chromatography; FVIIam yield in eluate 73.8%, 1.1% not retained; 50 mM Tris, 10 mM CaCl2, 4 mM MgCl2, pH 7.5; EDTA elution

B1: Mapt 2CS-PEG(C11) (oligo5) (ssDNA)
DNA: ATGCAGCCAGCCGCAGTGTAAGTGAATGCAGACATGGTCTAAGTG
modifications: 5' amine hydrophilic C11 spacer (11-amino-3,6,9-trioxaundecan-1-yl), grafted on NHS-activated Sepharose 4 FF
binding result [1]: binds

B2: Mapt 2.2CS-PEG(C11) (ssDNA)
DNA: CCGCACGCTACGCGCATGAACCCGCGCACACGACTTGAAGTAGC
modifications: 5' amine hydrophilic C11 spacer (11-amino-3,6,9-trioxaundecan-1-yl), grafted on NHS-activated Sepharose 4 FF
binding result [2]: binds

CCGCACGCTACGCGCATGAACCCGCGCACACGACTTGAAGTAGC (ssDNA, 5' amine C6 spacer, grafted on NHS-activated Sepharose 4 FF) [Mapt 2.2CS C6]
binding result [3]: binds
